Data from US20260022160A1 (AFFYXELL THERAPEUTICS, published 2026).

Key:
human serum albumin = target: T1, human serum albumin (human, UniProt P02768 25-609); assay: bridging ELISA: binder captured on plate-coated hCD40L, HSA 10 uM, bound HSA detected with anti-HSA antibody
T1 construct: also called HSA
Procedure: (§1) After saturation with 5% casein/PBS buffer, the plates were washed and a dilution of Stefin A protein variant or controls was incubated with HSA at a final concentration of 10 μM for 90 minutes. Plates were then washed, and a […], anti-HSA (HRP-conjugated) (Abcam), was added for 90 minutes. After a last washing step, TMB was added for the development of the experiment and the plates were read at 450 nm. The EC50 was then calculated using the interpolated non-linear four-parameters standard curve (FIG. 12C).

human CD40L [1] = target: T2, human CD40L (human, UniProt P29965 113-261, limits assumed); assay: bridging ELISA: capture on plate-coated hCD40L, HSA 10 uM, detection with anti-HSA antibody, OD 450-630 nm
T2 construct: also called hCD40L; huCD40L
T2 sequence (looked up): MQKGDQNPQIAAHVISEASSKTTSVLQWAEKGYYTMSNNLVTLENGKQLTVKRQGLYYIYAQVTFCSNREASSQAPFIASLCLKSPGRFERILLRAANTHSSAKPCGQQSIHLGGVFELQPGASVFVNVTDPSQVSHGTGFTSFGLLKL
Procedure: as §1

human CD40L [2] = target: T2, human CD40L; assay: ELISA on plate-coated hCD40L, no HSA, detection with anti-cystatin antibody, OD 450-630 nm
Procedure: After a last washing step, TMB was added for the development of the experiment and the plates were read at 450 nm. The EC50 was then calculated using the interpolated non-linear four-parameters standard curve (FIG. 12C).

human CD40L [3] = target: T2, human CD40L; assay: ELISA on plate-coated hCD40L in the presence of HSA (10 uM), detection with anti-cystatin antibody, OD 450-630 nm
human CD40L [4] = target: T2, human CD40L; assay: competitive ELISA: hCD40L (1 nM) premixed with the binder and added to plate-coated rhCD40 Fc; bound hCD40L detected with biotinylated anti-hCD40L polyclonal antibody
Procedure: To evaluate the avidity of the different formats, a CD40L competitive ELISA was performed. Briefly, the plates were coated with rhCD40 Fc at 1 μg/ml and incubated overnight at 4° C. The plates were washed twice with 150 μl of washing buffer (PBS, Tween 20 0.1%) with a plate washer and saturated with Casein 5% (Sigma) in PBS for 90 minutes at room temperature (25±1° C.). […] The resulting solution was then mixed and added to the plates. The plates were washed 3 times as described previously. […] The plates were incubated for 90 minutes at room temperature (25±1° C.). The plates were then washed. PolyHRP-Streptavidin was then diluted in dilution buffer and added to the plates. The plates were incubated an additional 90 minutes at room temperature (25±1° C.). Plates were washed 3 times as described previously and the substrate (TMB, Pierce Thermo-Scientific) was added in the plate for 10 minutes. The reaction was stopped using an acidic solution and the plates were read at 450-630 nm and the resulting percent inhibition was calculated.

human CD40L [5] = target: T2, human CD40L; assay: cell-based or functional assay
human CD40L [6] = target: T2, human CD40L; assay: direct binding ELISA on plate-coated hCD40L (5 ug/ml), detection biotinylated anti-cystatin A antibody + polyHRP-streptavidin, OD 450-630 nm; the table prints 268, the curve legend prints Clone -288 in its place
Procedure: Plates were washed 2 times with 150 μl of washing buffer (PBS, Tween 20 0.1%) with a plate washer and saturated with Casein 5% (Sigma) in PBS for 90 minutes at room temperature (25±1° C.). For binding, each DAW01 clone and rhCD40 Fc were added to the plate, starting from 1 μM, 1 in 3 and 300 nM, 1 in 3 respectively. Plates were washed 3 times as described previously. […] Then, cystatin A biotinylated polyclonal antibody (BAF1407) was diluted to a concentration of 0.05 μg/ml in dilution buffer (PBS, 1% casein, 0.01% Tween 20) and the plate was incubated for 90 minutes at room temperature (25±1° C.). PolyHRP-streptavidin was then diluted in dilution buffer and the plates were incubated for 90 minutes at room temperature (25±1° C.). The plates were then washed 3 times as described previously, and the substrate (TMB, Pierce Thermo-Scientific) was added to the plates for 10 minutes. The reaction was stopped using an acidic solution, and plates were read at 450-630 nm.

[7] = target: T3, human CD40L expressed on HEK293 cells (human, UniProt P29965 1-261); assay: flow cytometry, clone at 1 uM on hCD40L-HEK293 cells (hatched), HEK-293 negative cells as control (open), detection anti-Cystatin A + A488 anti-goat
T3 construct: whole, on cells; also called hCD40L-HEK293 cells; hCD40L-HEK-293 cells (Crown Biosciences, C2041)
T3 sequence (looked up): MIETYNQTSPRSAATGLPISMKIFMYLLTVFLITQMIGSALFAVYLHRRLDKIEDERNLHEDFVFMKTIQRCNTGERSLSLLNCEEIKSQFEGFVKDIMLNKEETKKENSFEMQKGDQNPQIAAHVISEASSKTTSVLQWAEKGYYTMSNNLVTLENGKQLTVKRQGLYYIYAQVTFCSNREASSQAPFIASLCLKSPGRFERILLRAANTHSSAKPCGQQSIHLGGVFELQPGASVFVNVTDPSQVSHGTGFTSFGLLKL
Procedure: The cells were resuspended in PBS and 200,000 cells per well were dispatched in a round bottom 96 well plate. Cells were washed with PBS. The stefin A protein variant and controls were diluted in staining buffer containing 1% BSA, 0.01% Sodium Azide (NaN3), 2 mM EDTA in DPBS in duplicate and added on cells for staining for approximately 60 min at 4±1° c. Cells were washed and the secondary anti-Cystatin A (R&D, AF1407) was diluted 0.2 mg/ml in staining buffer and added on cells for staining for approximately 45 min at 4±1° c. Cells were washed again and the detection antibody A488 anti-goat (ThermoFisher, A21467) was diluted 1:500 in staining buffer and added to the cells for staining (approximately 30 min at 4±1° C.). Finally, the cells were washed and live and dead cells were stained using L/D stain Zombie Yellow (Biolegend, 423103) diluted in staining buffer for 10 min at 4±1° C. Cells were washed again and fixation buffer (R&D) was added to each well for 10 min at 4±1° C. then PBS with EDTA (Lonza) was added prior reading the plate on the flow cytometer (Guava 12 HT, Millipore). Dead cells were excluded, and the fluorescent green channel (488 nm/525/30) was acquired. Results were analyzed using Incyte and data were plotted using GraphPad.

T1 sequence (P02768 25-609): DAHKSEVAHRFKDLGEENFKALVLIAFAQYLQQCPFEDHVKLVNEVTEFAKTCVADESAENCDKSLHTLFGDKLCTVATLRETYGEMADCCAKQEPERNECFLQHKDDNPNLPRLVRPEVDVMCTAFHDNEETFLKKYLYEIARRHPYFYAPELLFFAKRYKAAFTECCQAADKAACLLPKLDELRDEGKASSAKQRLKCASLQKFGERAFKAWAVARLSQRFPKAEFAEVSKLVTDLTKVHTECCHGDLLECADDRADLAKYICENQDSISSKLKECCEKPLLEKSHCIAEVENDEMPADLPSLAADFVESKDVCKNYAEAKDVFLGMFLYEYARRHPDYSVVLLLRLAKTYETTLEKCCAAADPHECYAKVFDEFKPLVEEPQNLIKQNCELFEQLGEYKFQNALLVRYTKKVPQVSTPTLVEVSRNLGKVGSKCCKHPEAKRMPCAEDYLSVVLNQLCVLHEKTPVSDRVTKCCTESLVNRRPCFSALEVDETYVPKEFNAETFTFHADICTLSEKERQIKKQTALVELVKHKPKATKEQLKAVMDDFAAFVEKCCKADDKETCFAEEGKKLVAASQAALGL

B1: clone-230 XT75 (trimer with a rigid linker and an HSA binding stefin A protein variant) (designed binder)
chain: IPGGLSEAKPATPEIQEIVDKVKPQLEEKTGETYGKLEAVQYKTQVVHYYVHYNDQGTNYYIKVRAGDNKYMHLKVFKSLWGENLFAKWEDLVLTGYQVDKNKDDELTGFAEAAAKEAAAKEAAAKEAAAKEAAAKEAAAKMIPGGLSEAKPATPEIQEIVDKVKPQLEEKTGETYGKLEAVQYKTQVVHYYVHYNDQGTNYYIKVRAGDNKYMHLKVFKSLWGENLFAKWEDLVLTGYQVDKNKDDELTGFAEAAAKEAAAKEAAAKEAAAKEAAAKEAAAKMIPGGLSEAKPATPEIQEIVDKVKPQLEEKTGETYGKLEAVQYKTQVVHYYVHYNDQGTNYYIKVRAGDNKYMHLKVFKSLWGENLFAKWEDLVLTGYQVDKNKDDELTGFAEAAAKEAAAKEAAAKEAAAKEAAAKEAAAKMIPRGLSEAKPATPEIQEIVDKVKPQLEEKTGETYGKLEAVQYKTQVLANFFQRRWPGSTNYYIKVRAGDNKYMHLKVFNGPWKFRNTDRGADRVLTGYQVDKNKDDELTGF
notes: also called AFX01-230 XT75
binding result (human serum albumin): binds
EC50 (human CD40L [1]): 410 pM
EC50 (human CD40L [2]): 20 pM
EC50 (human CD40L [3]): 40 pM
IC50 (read off the curve) (human CD40L [4]): ~4000 pM
IC50 (read off the curve) (human CD40L [5]): ~8000 pM

B2: clone-230 XT76 (tetramer with a rigid linker and an HSA binding stefin A protein variant) (designed binder)
chain: IPGGLSEAKPATPEIQEIVDKVKPQLEEKTGETYGKLEAVQYKTQVVHYYVHYNDQGTNYYIKVRAGDNKYMHLKVFKSLWGENLFAKWEDLVLTGYQVDKNKDDELTGFAEAAAKEAAAKEAAAKEAAAKEAAAKEAAAKMIPGGLSEAKPATPEIQEIVDKVKPQLEEKTGETYGKLEAVQYKTQVVHYYVHYNDQGTNYYIKVRAGDNKYMHLKVFKSLWGENLFAKWEDLVLTGYQVDKNKDDELTGFAEAAAKEAAAKEAAAKEAAAKEAAAKEAAAKMIPGGLSEAKPATPEIQEIVDKVKPQLEEKTGETYGKLEAVQYKTQVVHYYVHYNDQGTNYYIKVRAGDNKYMHLKVFKSLWGENLFAKWEDLVLTGYQVDKNKDDELTGFAEAAAKEAAAKEAAAKEAAAKEAAAKEAAAKMIPGGLSEAKPATPEIQEIVDKVKPQLEEKTGETYGKLEAVQYKTQVVHYYVHYNDQGTNYYIKVRAGDNKYMHLKVFKSLWGENLFAKWEDLVLTGYQVDKNKDDELTGFAEAAAKEAAAKEAAAKEAAAKEAAAKEAAAKMIPRGLSEAKPATPEIQEIVDKVKPQLEEKTGETYGKLEAVQYKTQVLANFFQRRWPGSTNYYIKVRAGDNKYMHLKVFNGPWKFRNTDRGADRVLTGYQVDKNKDDELTGF
EC50 (human CD40L [1]): 800 pM
EC50 (human CD40L [2]): 70 pM
EC50 (human CD40L [3]): 100 pM
IC50 (read off the curve) (human CD40L [4]): ~3000 pM
IC50 (read off the curve) (human CD40L [5]): ~2000 pM

B3: stefin A protein variant clone 268 (designed binder)
chain: MIPGGLSEAKPATPEIQEIVDKVKPQLEEKTGETYGKLEAVQYKTQVVGDSYWEYVSGTNYYIKVRAGDNKYMHLKVFKSLPYRWRPDHAEDLVLTGYQVDKNKDDELTGF
EC50 (human CD40L [6]): 31200 pM
% Positive [7]: 95.7%
MFI [7]: 7780 MFI
